# Results taken from PMC13544220, “Glycemic and bodyweight effects of GIPR coding variation reflect differences in surface expression and intrinsic functional impairment” (Science Advances, 2026).
# B1: L262V (protein, UniProt P48546 22-466, looked up, variant L262V)
# Gastric inhibitory …: RAETGSKGQTAGELYQRWERYRRECQETLAAAEPPSGLACNGSFDMYVCWDYAAPNATARASCPWYLPWHHHVAAGFVLRQCGSDGQWGLWRDHTQCENPEKNEAFLDQRLILERLQVMYTVGYSLSLATLLLALLILSLFRRLHCTRNYIHINLFTSFMLRAAAILSRDRLLPRPGPYLGDQALALWNQALAACRTAQIVTQYCVGANYTWLLVEGVYLHSLLVLVGGSEEGHFRYYLLVGWGAPALFVIPWVIVRYLYENTQCWERNEVKAIWWIIRTPILMTILINFLIFIRILGILLSKLRTRQMRCRDYRLRLARSTLTLVPLLGVHEVVFAPVTEEQARGALRFAKLGFEIFLSSFQGFLVSVLYCFINKEVQSEIRRGWHHCRLRRSLGEEQRQLPERAFRALPSGSGPGEVPTSRGLSSGTLPGPGNEASRELESYC
# Experiments:
# Type in all cases: cell-based, human
# [1] = tested on: wild-type and variant SNAP-GIPR; experiment: cADDis cAMP imaging in AD293 cells, ensemble, expression-matched and per decile; conditions: Fig S3F, cADDis, mean;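 note: Ensemble cells as % of IBMX/FSK response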
# Method in brief: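 Surface GIPR and cAMP are measured in individual AD293 cells coexpressing SNAP-tagged receptor and the green cADDis biosensor, imaged live at 37°C. Responses are reported ensemble, expression-matched against wild-type deciles with extremes trimmed, or within each variant's own surface deciles.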
# [2] = tested on: wild-type and variant SNAP-GIPR; experiment: Constitutive and agonist-mediated internalization, reversible SNAP-tag labelling, AD293 cells; set-up: key to Internalisation, Vehicle / Internalisation, +GIP / Internalisation, GIP-only: % internalization: residual fluorescence after Mesna vs pre-Mesna; Surface expression: unit not given here; conditions: Mean
# Method in brief: (§1)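 Percentage internalization calculated as specific SNAP fluorescence remaining after 10 min Mesna exposure, relative to pre-Mesna signal, imaged in TNE buffer (pH 8.6).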
# [3] = tested on: wild-type and variant SNAP-GIPR; experiment: Surface SNAP-GIPR expression (SNAP-tag labelling) in AD293 cells; conditions: for AD293 Surface: Fig S3E, mean; for Surface SNAP-GIPR expression: sheet Fig 1C;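 for all read-outs here: scaled to the experimental average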
# Method in brief: (§2)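 Read-out: whole-cell fluorescence of surface-only SNAP label (Alexa Fluor 647, 500 nM, 10 min, RT), wide-field 20X, several FOVs per well. Flat-field corrected, phase-contrast masked, nontransfected-well signal subtracted; normalized to experiment mean or wild-type.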
# [4] = tested on: wild-type and variant SNAP-GIPR; experiment: Single-concentration GIP cAMP response by HTRF in INS-1 cells; conditions: Fig S3E, mean
# Method: (§3) All variants were tested in parallel on each occasion to control for transfection efficiency differences between experiments.
# [5] = tested on: wild-type and variant SNAP-GIPR; experiment: Surface SNAP-GIPR expression (SNAP-tag labelling) in INS-1 cells; conditions: Fig 4G; Mean
# Method in brief: as §2
# [6] = tested on: wild-type and variant SNAP-GIPR; experiment: Constitutive and agonist-mediated internalization, reversible SNAP-tag labelling, INS-1 cells; set-up: key to Internalisation, GIP-only / Internalisation, Vehicle / Internalisation, +GIP: % internalization: residual fluorescence after Mesna vs pre-Mesna; conditions: Mean
# Method in brief: as §1
# [7] = tested on: wild-type and variant SNAP-GIPR; experiment: Single-concentration GIP cAMP response by HTRF in AD293 cells; conditions: Fig S3F, HTRF, mean;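 note: ratio to experiment-wide average response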
# Method: as §3
molecule,measurement,setting,value
B1,AD293 100 pM cADDis,"[1]; AD293, 100 pM",31.1728
same,AD293 100 nM cADDis,"[1]; AD293, 100 nM",39.27
same,+GIP internalisation (100 nM),"[2]; Fig 4E, GIP 100 nM",0.6926
same,GIP-specific internalisation (100 nM),"[2]; Fig 4E, GIP 100 nM",0.1787
same,Constitutive internalisation (100 nM),[2]; Fig 4E,0.5139
same,Surface expression,[2]; Fig 4E,1.204
same,"Internalisation, +GIP","[2]; Fig S4C, AD293",57.508
same,"Internalisation, GIP-only","[2]; Fig S4C, AD293",14.8294
same,"Internalisation, Vehicle","[2]; Fig S4C, AD293",42.6786
same,AD293 Surface,"[3]; column repeated, paired with cAMP 100 nM",1.3
same,AD293 Surface,[3]; paired with cAMP 100 pM,1.3
same,Surface SNAP-GIPR expression,[3]; replicate 1,1.375
same,Surface SNAP-GIPR expression,[3]; replicate 2,0.996
same,Surface SNAP-GIPR expression,[3]; replicate 3,2.76
same,Surface SNAP-GIPR expression,[3]; replicate 4,0.9875
same,Surface SNAP-GIPR expression,[3]; replicate 5,1.257
same,Surface SNAP-GIPR expression,[3]; replicate 6,2.431
same,Surface SNAP-GIPR expression,[3]; replicate 7,1.521
same,Surface SNAP-GIPR expression,[3]; replicate 8,0.9638
same,Surface SNAP-GIPR expression,[3]; replicate 9,1.328
same,Surface SNAP-GIPR expression,[3]; replicate 10,1.382
same,Surface SNAP-GIPR expression,[3]; replicate 11,1.153
same,Surface SNAP-GIPR expression,[3]; replicate 12,1.188
same,Surface SNAP-GIPR expression,[3]; replicate 13,1.165
same,Surface SNAP-GIPR expression,[3]; replicate 14,1.166
same,Surface SNAP-GIPR expression,[3]; replicate 15,1.23
same,Surface SNAP-GIPR expression,[3]; replicate 16,1.047
same,Surface SNAP-GIPR expression,[3]; replicate 17,1.27
same,Surface SNAP-GIPR expression,[3]; replicate 18,1.238
same,Surface SNAP-GIPR expression,[3]; replicate 19,0.9807
same,Surface SNAP-GIPR expression,[3]; replicate 20,0.8682
same,Surface SNAP-GIPR expression,[3]; replicate 21,1.136
same,Surface SNAP-GIPR expression,[3]; replicate 22,1.402
same,Surface SNAP-GIPR expression,[3]; replicate 23,1.295
same,Surface SNAP-GIPR expression,[3]; replicate 24,1.372
same,Surface SNAP-GIPR expression,[3]; replicate 25,1.308
same,Surface SNAP-GIPR expression,[3]; replicate 26,1.104
same,Surface SNAP-GIPR expression,[3]; replicate 27,1.5
same,Surface SNAP-GIPR expression,[3]; replicate 28,1.095
same,Surface SNAP-GIPR expression,[3]; replicate 29,1.555
same,Surface SNAP-GIPR expression,[3]; replicate 30,1.424
same,Surface SNAP-GIPR expression,[3]; replicate 31,1.568
same,Surface SNAP-GIPR expression,[3]; replicate 32,1.239
same,Surface SNAP-GIPR expression,[3]; replicate 33,1.116
same,Surface SNAP-GIPR expression,[3]; replicate 34,1.325
same,Surface SNAP-GIPR expression,[3]; replicate 35,1.446
same,Surface SNAP-GIPR expression,[3]; replicate 36,1.136
same,Surface SNAP-GIPR expression,[3]; replicate 37,0.8646
same,Surface SNAP-GIPR expression,[3]; replicate 38,1.251
same,Surface SNAP-GIPR expression,[3]; replicate 39,1.117
same,Surface SNAP-GIPR expression,[3]; replicate 40,1.314
same,Surface SNAP-GIPR expression,[3]; replicate 41,1.425
same,INS-1 cAMP (100 nM),[4],1.234
same,Surface expression,[5],1.205
same,+GIP internalisation (100 nM),"[6]; Fig 4G, GIP 100 nM",0.5955
same,GIP-specific internalisation (100 nM),"[6]; Fig 4G, GIP 100 nM",0.1388
same,Constitutive internalisation (100 nM),[6]; Fig 4G,0.4567
same,"Internalisation, +GIP","[6]; Fig S4C, INS-1",50.3417
same,"Internalisation, GIP-only","[6]; Fig S4C, INS-1",11.92
same,"Internalisation, Vehicle","[6]; Fig S4C, INS-1",38.4217
same,AD293 100 pM HTRF,"[7]; AD293, 100 pM",1.19
same,AD293 100 nM HTRF,"[7]; AD293, 100 nM",1.331
